The values that follow come from publication PMC2367712.

Like-named read-outs stand apart in the source and are kept apart here.

Holding throughout (experiment): EMSA
In general terms: Mobility shift assays separate free from complexed probe on a gel.

Data set [1] deals with T1, Lsr2 (Mycobacterium tuberculosis, UniProt P9WIP7 1-112).
Data set [2] has as its target T1, Lsr2. The source holds these as a separate data set.
Data set [3] concerns the target T1, Lsr2. This is another data set of the same source.

B1: lmo 26 bp fragment 1 (46% AT) (dsDNA)
DNA 1: TGCTGGTCAATTAGGCACTGCGTGAC
DNA 2: GTCACGCAGTGCCTAATTGACCAGCA
Turning to B1, in data set [1], the binding result is on record as “binds”.

B2: C42 (dsDNA)
DNA 1: AAAAATCTCTAAAAAATCTCTAAAAATCTCTAAAAAATCTCT
DNA 2: AGAGATTTTTTAGAGATTTTTAGAGATTTTTTAGAGATTTTT
Regarding B2, in data set [2], the binding result is on record as “binds”.

B3: lmo promoter 104 bp (dsDNA)
DNA 1: TGCTGGTCAATTAGGCACTGCGTGACAATTTATCGAGTCGCACAACCGGATCATCCATCCGTTATTTACGTCAATTTAAACGGATGATCTATCCGCTGGCTCCC
DNA 2: GGGAGCCAGCGGATAGATCATCCGTTTAAATTGACGTAAATAACGGATGGATGATCCGGTTGTGCGACTCGATAAATTGTCACGCAGTGCCTAATTGACCAGCA
In the case of B3, the binding result in data set [3] was “binds”.

B4: lmo 26 bp fragment 3 (65% AT) (dsDNA)
DNA 1: ATCCATCCGTTATTTACGTCAATTTA
DNA 2: TAAATTGACGTAAATAACGGATGGAT
On to B4, for which the binding result in data set [1] is recorded as “binds”.

B5: lmo 26 bp fragment 2 (54% AT) (dsDNA)
DNA 1: AATTTATCGAGTCGCACAACCGGATC
DNA 2: GATCCGGTTGTGCGACTCGATAAATT
Turning to B5, the binding result in data set [1] was “binds”.
